# In FireProtDB (doi:10.1074/jbc.272.30.18686):
# Details: Escherichia coli (strain K12); pH 3.2; Thermal; CD; glycine-HCl 10 mM; reversible: yes; whole UniProt chain shown
protein,measurement,value
"Ribonuclease HI wild type, P0A7Y4 (protein) MLKQVEIFTDGSCLGNPGPGGYGAILRYRGREKTFSAGYTRTTNNRMELMAAIVALEALKEHCEVILSTDSQYVRQGITQWIHNWKKRGWKTADKKPVKNVDLWQRLDAALGQHQIKWEWVKGHAGHPENERCDELARAAAMNPTLEDTGYQVEV",Tm,53 °C
same,unfolding enthalpy (van 't Hoff),99.2 kcal/mol
